We go through three molecules from patent US20180362629A1 (ZOETIS BELGIUM S A, published 2018).

Experiment [1] concerns the target T1, recombinant canine β NGF (canine, UniProt Q29074 110-229 (pig entry)).
T1 construct: also called canine NGF
T1 chain: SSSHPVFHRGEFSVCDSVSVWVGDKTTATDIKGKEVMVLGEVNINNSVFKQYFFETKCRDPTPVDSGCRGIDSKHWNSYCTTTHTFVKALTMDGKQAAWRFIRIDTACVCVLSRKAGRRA
Nature of the experiment: SPR (Biacore T100), antibody captured on goat anti-canine IgG, canine NGF injected; Expt 1; Expt 1. The method, then: (§1) Purified mouse/canine chimeric antibodies and caninized antibodies were analyzed for affinity to canine NGF using a Biacore T100 instrument. Goat anti Canine IgG (Southern Biotech) was immobilized at 5000-10000 RU on a CM5 chip using an amine coupling procedure according to the manufacturer's instructions (Biacore). […] The association rate was monitored for 5 min and the dissociation rate was monitored for 10-20 min. The chip surface was regenerated using 50-75 ul 10 mM glycine pH 1.5 at a flow rate of 50-100 ul/min. Data was analyzed using Biaevaluation T100 software version 2.0.2, software, GE Healthcare Life Sciences (Piscataway, N.J.). Overall affinity parameters established for mouse/canine chimeric antibodies is summarized in Table 22 and for caninized antibodies in Table 23. […] The overall KDs of the mouse/canine anti-NGF mAbs range from about 1300 pM to 1.6 pM. […] The overall KDs of the caninized anti-NGF mAbs range from about 42 pM to 1.2 pM.
A general note: Surface plasmon resonance follows binding to a sensor surface in real time, without labels.

The target of experiment [2] is T1, recombinant canine β NGF. Kind of experiment: cell-based or functional assay.
Experiment [3] concerns the target T1, recombinant canine β NGF. Nature of the experiment: SPR (Biacore T100), antibody captured on goat anti-canine IgG, canine NGF injected; Expt 1. The method, then: as §1
Experiment [4] addresses T1, recombinant canine β NGF. Nature of the experiment: SPR (Biacore T100), antibody captured on goat anti-canine IgG, canine NGF injected; Average. Here is the method: as §1
Experiment [5] addresses T1, recombinant canine β NGF. Nature of the experiment: SPR (Biacore T100), antibody captured on goat anti-canine IgG, canine NGF injected; Expt 2. The method, then:
as §1

For experiment [6], the target named is T1, recombinant canine β NGF. Nature of the experiment: SPR (Biacore), mAb captured on goat anti-mouse IgG Fc, canine NGF injected; Average; Average. The method, then: (§2) A biomolecular protein interaction analysis was used to evaluate the binding kinetics of the interaction between the purified anti-NGF hybridoma antibodies and recombinant canine β NGF. The antibodies were captured using a goat anti-mouse IgG FC (10000 RU) surface which was directly immobilized to a CM5 chip using an amine coupling procedure according to the manufacturer's instructions (Biacore). A sample size of 5 μl of antibody at a concentration of 1 μg/ml was captured at 10 μl minute. Recombinant canine NGF was used as the antigen. Canine NGF was injected at 75 μl/min (concentration range: 5-0.039 nM) for mouse antibodies. The association rate was monitored for 3.3 minutes and the dissociation rate was monitored for 10 minutes. Aliquots of canine NGF were also simultaneously injected over a reference reaction CM surface to record any nonspecific binding background. The instrument sensitivity for on-rate is I×IO⁷, such that any on-rate that is faster than I×IO⁷ may not be accurately measured; the instrument sensitivity for off-rate is […], such that any off-rate that is slower than 1×10⁻⁶ may not be accurately measured. Therefore, an on-rate that is faster than 1×10⁷ is recorded as >1×10⁷ and an off-rate that is slower than 1×10⁻⁶ is recorded as <1×10⁻⁶.

For experiment [7], the target named is T1, recombinant canine β NGF. Kind of experiment: direct ELISA, canine NGF coated at 1 µg/ml, mAb at 0.4 µg/ml. Here is the method:
(§3) To determine if purified mouse anti-NGF mAbs bind to canine β NGF, ELISA plates were coated with 50 μl/well of canine NGF (Abbott Laboratories) at 1 μg/ml in PBS and incubated over night at 4° C. The plates were washed three times with PBS+Tween buffer. The plates were blocked with 200 μl/well of 2% milk in PBS for 1 hour at room temperature. The plates were washed three times as above. Purified antibodies were diluted to 0.4, 2, or 10 μg/ml. 50 μl of each concentration of purified antibody was added to the plates. The plates were incubated for 1 hour at room temperature. The plates were washed. 50 μl of a 5000-fold diluted goat anti-mouse IgG Fc-HRP (Thermo, catalog #31439) was added. The plates were incubated for 1 hour at room temperature. 50 μl of TMB (Invitrogen, catalog #00-2023) was added and the reaction was stopped using 2N H₂SO₄ (VWR, catalog # BDH3500-1). The absorbance at 450 nm was read on a Spectromax 2E plate reader (Molecular Devices). The results are shown in Table 9, and the numerical value indicates binding of mouse anti-NGF antibodies to canine β NGF.
For orientation: In an ELISA, binding on a coated surface is turned into a signal by an enzyme label.

In experiment [8] the target is T1, recombinant canine β NGF. Nature of the experiment: SPR (Biacore), mAb captured on goat anti-mouse IgG Fc, canine NGF injected; Expt 1. Here is the method: as §2
Experiment [9] deals with T1, recombinant canine β NGF. Nature of the experiment: cell-based or functional assay.
Experiment [10] has as its target T1, recombinant canine β NGF. Nature of the experiment: cell-based or functional assay.
Experiment [11] deals with T1, recombinant canine β NGF. Kind of experiment: SPR (Biacore), mAb captured on goat anti-mouse IgG Fc, canine NGF injected; Average. The method, then:
as §2

Experiment [12] addresses T1, recombinant canine β NGF. Kind of experiment: SPR (Biacore), mAb captured on goat anti-mouse IgG Fc, canine NGF injected; Expt 1; Expt 1. The method, then: as §2
The target of experiment [13] is T1, recombinant canine β NGF. Nature of the experiment: direct ELISA, canine NGF coated at 1 µg/ml, mAb at 2 µg/ml. Here is the method:
as §3

The target of experiment [14] is T1, recombinant canine β NGF. Nature of the experiment: direct ELISA, canine NGF coated at 1 µg/ml, mAb at 10 µg/ml. Here is the method: as §3
Experiment [15] deals with T1, recombinant canine β NGF. Kind of experiment: SPR (Biacore), mAb captured on goat anti-mouse IgG Fc, canine NGF injected; Expt 2. Here is the method: as §2
The target in experiment [16] is human β NGF (R&D Systems catalog #256-GF/CF) (human, UniProt P01138 122-241). Nature of the experiment: cell-based or functional assay.

Where two headings read alike, the source gives them in different places.

Sequence of human β NGF (R&D Systems catalog #256-GF/CF) (P01138 122-241 limits assumed): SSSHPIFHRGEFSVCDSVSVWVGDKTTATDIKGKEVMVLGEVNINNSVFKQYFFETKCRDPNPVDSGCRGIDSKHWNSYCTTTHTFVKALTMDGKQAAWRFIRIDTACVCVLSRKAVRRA

B1: 82.3 Canine IgG1/k (antibody, V domains shown)
VH: EVQLQESGPGLVKPSQTLSLTCTVSGFSLTGYNINWVRQRPDRGLEWLGMIWGYGDTDYNSALKSRLSISKDNTKSQVFLQLTSTTTEDTAVYYCARDHYGGNDWYFDVWGQGTLVTVSS
VL: DIQMTQTPLSLSASPGESASITCRASQDITNYLNWYRQKPGQSVKLLIYYTSRLHSGVPSRFSGSGSGTDYSLRISRVEDEDAGLYFCQQGKTLPRTFGQGTKLEIKR
notes: The variable/constant junction was not checked; also called PR-1313519; PR-13113519
The koff is the first-order rate constant of dissociation. Usually Kd stands for the concentration at which binding is half-saturated. What is called kon is the rate constant with which the complex forms. Consider B1, for which the koff in the experiment with recombinant canine β NGF [1] stood at 2e-05 s⁻¹; with recombinant canine β NGF [4] it was 1.7e-05 s⁻¹; in the experiment with recombinant canine β NGF [5], 1.3e-05 s⁻¹. The “IC50, canine NGF-induced TF-1 cell proliferation (70 pM canine NGF)” value (from here on “IC50 … (70 pM canine NGF)”) in the experiment with recombinant canine β NGF [2] was found to be 0.017 nM. In addition, the Kd with recombinant canine β NGF [3] is 2.4 pM; in the experiment with recombinant canine β NGF [4], 2 pM; with recombinant canine β NGF [5], 1.6 pM. Moreover, the results for the kon in the experiment with recombinant canine β NGF [3], in the experiment with recombinant canine β NGF [4] and with recombinant canine β NGF [5] were 8.2e+06 M⁻¹ s⁻¹, 8.4e+06 M⁻¹ s⁻¹ and 8.5e+06 M⁻¹ s⁻¹, respectively.

B2: PR-1254982 (antibody, mouse IgG1, V domains shown)
VH: QVQLKESGPGLVAPSQSLSITCTVSGFSLTGYNINWVRQPPGKGLEWLGMIWGYGDTDYNSALKSRLSISKDNSKSQVFLKMNSLQTDDTARYYCARDHYGGNDWYFDVWGTGTTVTVSS
VL: DIQMTQTTSSLSASLGDRVTITCRASQDITNYLNWYQQKPDGTVKLLIYYTSRLHSGVPSRFSGSGSGTDYSLTISNLDQEDIATYFCQQGKTLPRTFGGGTKLEIKR
notes: also called 3F7; ML130-3F7.4A8
With B2, the koff with recombinant canine β NGF [6], with recombinant canine β NGF [12] and with recombinant canine β NGF [15] was below 1e-06 s⁻¹ in each case. Moreover, the results for the “absorbance at 450 nm” value in the experiment with recombinant canine β NGF [7], in the experiment with recombinant canine β NGF [13] and with recombinant canine β NGF [14] were 0.095 A450, 0.142 A450 and 0.208 A450, respectively. The Kd with recombinant canine β NGF [8], in the experiment with recombinant canine β NGF [11] and in the experiment with recombinant canine β NGF [15] was below 0.1 pM each time. The kon with recombinant canine β NGF [8], with recombinant canine β NGF [11] and in the experiment with recombinant canine β NGF [15] was above 1e+07 M⁻¹ s⁻¹ throughout. In addition, in the experiment with recombinant canine β NGF [9], the “IC50 … (70 pM canine NGF)” value was found to be 0.025 nM. Moreover, the “PathHunter IC50 (441 pM canine NGF)” value in the experiment with recombinant canine β NGF [10] is 0.15 nM. For the same molecule, in the experiment with recombinant canine β NGF [10], the “SureFire pERK IC50 (128 pM canine β NGF)” value was 0.0058 nM.

B3: PR-1254980 (antibody, mouse IgG1, V domains shown)
VH: EVQLQQSGAELVKPGASVKLSCTASGFNIKDTYIYWVKQRPEQGLEWIGRIDPANGNTIYASKFQGKATITADTSSNTAYMQLSSLTSGDTAVYYCAGYGYYAYWGQGTTLTVSS
VL: DVVLTQTPLSLPVNIGDQASISCKSTKSLLNGDGFTYLDWYLQKPGQSPQLLIYLVSNRFSGVPDRFSGSGSGTDFTLKISRVEAEDLGVYYCFESNYLFTFGSGTKLEMKR
notes: also called 23F1; ML129-23F1.4G3
B3: the “absorbance at 450 nm” value is 0.168 A450 with recombinant canine β NGF [7], 0.334 A450 with recombinant canine β NGF [13] and 0.491 A450 with recombinant canine β NGF [14]. For the same molecule, the Kd in the experiment with recombinant canine β NGF [8] was below 23.7 pM; with recombinant canine β NGF [11], below 23.1 pM; in the experiment with recombinant canine β NGF [15], below 22.5 pM. Moreover, the koff stood at 0.000237 s⁻¹ with recombinant canine β NGF [8], 0.000231 s⁻¹ with recombinant canine β NGF [11] and 0.000225 s⁻¹ in the experiment with recombinant canine β NGF [15]. In addition, the kon with recombinant canine β NGF [8], with recombinant canine β NGF [11] and with recombinant canine β NGF [15] was above 1e+07 M⁻¹ s⁻¹ throughout. In the experiment with recombinant canine β NGF [9], the “IC50 … (70 pM canine NGF)” value amounted to 0.343 nM. The “PathHunter IC50 (441 pM canine NGF)” value with recombinant canine β NGF [10] turned out to be 0.381 nM. Besides, the “SureFire pERK IC50 (128 pM canine β NGF)” value in the experiment with recombinant canine β NGF [10] was found to be 0.0137 nM. Moreover, the “PathHunter % of max signal, supernatant 100-fold” value in experiment [16] was 5%.
